Laboratory results taken from the nanobody polyreactivity screen of Harvey et al. (2022).

Assay: yeast display, Sf9 membrane polyspecificity reagent, FACS + sequencing; frameworks hold sequencing errors
Method in brief: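 Sorting gates, low and high (top ~1%), were placed on anti-HA fluorescence to track expression and on streptavidin fluorescence to track reagent binding. A clone's polyreactivity label is taken from the gate it came out of. The reagent was 10% biotinylated, detergent-solubilized Sf9 membrane, applied for 1 hour at 4 °C to galactose-induced yeast display cells.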

## QVQLVESGGGLVQAGGSLRLSCAASGSTSPFYVMGWYRQAPGKERELVAAISYSGGSTYYADSVKGRFTISRDNAKNTVYLQMISLKPEDTAVYYCAARYRLTYGLYGYWGQGTQVTVSS
  polyreactivity (PSR sort gate): high polyreactivity

## QVQLVESGGGLVQAGGSLRLSCAASGSIFTHNAMGWYRQAPGKERELVAAISTSGGRTYYADSVKGRFTISRDNAKNTVYLQMNSLKPEDTAVYYCAKLSTARYDYWGQGTQVTVSS
  polyreactivity (PSR sort gate): high polyreactivity

## QVQLVESGGGLVQAGGSLRLSIDASGRIFYPYVMGWYRQAPGQERELVAAISDSTGSTYYADSVKGRFTISRDNAKITVYLEMNSQKPEDTAVFYCAAGWFYATYWRFYYCGQGTQVTVSS
  polyreactivity (PSR sort gate): low polyreactivity

## QVQLVESGGGLVQAGGSLRLSCAASGITFYKYDMGCYRQATGKERELVAAISFRGGNTNYADSVKGRFTISRDNAKNTVYLQMTSLKPEDTAVYYCAAYSYTWFYEYGYWGLGTQVTVSS
  polyreactivity (PSR sort gate): high polyreactivity

## QVQLVESAGGLVQAGGSLRLSCAASGRIFSHYAMGWYRQAPGKERELVAAITSSGGSTSYADSVKGRFTISRDNAKNTVYLQMNSLKPEDTAVYYCAAEDTQVRRSPVRPLEDYWGQGTQVTVSS
  polyreactivity (PSR sort gate): low polyreactivity

## QVQLVESAAGLVQAGGSLRLSCPASGITFYYYAKGWYRQEPGKESELVAAISGGGDSTYYADSVKGRFTISRDNAKNTVYLQMNSLKPEDTAVYYCAAGQDYWVPDDSLFYYWGQGTQVTVSS
  polyreactivity (PSR sort gate): low polyreactivity

## QVQLVESGGGLVQAGGSLRLSCAASGSTFRRYARGWYRQAPGKERELVAAISTRGGSTYYADSVKGRFTISRDNAKNTVYLQMNSLKPEDTAVYYCAADEPKYTSSSSRRYGYWGQGTQVTVSS
  polyreactivity (PSR sort gate): high polyreactivity

## QVQLVESGGGLVQAGGSLRLSCAASGFIFDWYTMGWYRQAPGKERELVAAITIGGSTDYADSVKGRFTISRDNAKNTVYLLMNSLKPEDTAVYYCNALWYLSGTWYDYWGQGTQVTVSS
  polyreactivity (PSR sort gate): low polyreactivity

## QVQLVESGGGLVQAGGSLRLSCAASGFTFYRNAMGWSRQAPGKERELVARIRGTGGRTYYADSVKGRFTISRDNAKNTVYLQMNSLKPEDSAVYYCARRYHYSLYGYWGQGTQVTVSS
  polyreactivity (PSR sort gate): high polyreactivity

## QVQLVESGGGLVQAGGSLRLSCAASGFTFTPNAMGWYRQAPGKERELVAAISGSGGSTYYADSVKGRFTISRDNAKNTVYLQMNSLKPEDTAVYYCAKRRGVYTHWYDYWGQGTQVTVSS
  polyreactivity (PSR sort gate): high polyreactivity

## QVQLVESGGGLVQAGGSLRLSCAATGFTFIPYAMGWYRQAPGKERELVAGITIGGRTNNADSVKGRFTISRDNAKNTVYLQMNSLKPEDTAVYYCNAGVYLYVTSKYWYYYWGQGTQVTVSS
  polyreactivity (PSR sort gate): high polyreactivity

## QVQLVESGGGLVQAGVSLRLSCAASGRTFYGNAMGWYRQAPGKERELVAAISRSGGRTYYADSVKGRFTISRDNAKNTVYLQMNSLKPEDTAVYYCAKDYYYPSHTYGYWGQGTQVTVSS
  polyreactivity (PSR sort gate): high polyreactivity

## QVQLVESGGGLVQAGGSLRLSCAASGSIIGYYAMGWYRQAPGKERELVAAISRTGGSTYYADSVKGRFTISRDNAKNTVFLPMNSLKPEDTAVYYCATRTYARHDYWGQGTQGTVSS
  polyreactivity (PSR sort gate): high polyreactivity

## QVQLVESGGGLVQAGGSLRLSCAASGRTSVINAMGWYRQATGKERELVAAITKRGGSTYYADSVKGRFTISRDNAKNTVYLQMNSLKPEDTAVYYCAKYAISIQYDSWGQGTQVTVSS
  polyreactivity (PSR sort gate): high polyreactivity

## QVQLVESGGGLVQAGGSLRLICAASGSIFPANVMGWYRQAPGKERELVAVISSSGGRTFYADSVKGRFTISRDNAKNTVYLQMNSLKPDDTAVYYCAATIYDYKRALKYYYWGLGTQVTVSS
  polyreactivity (PSR sort gate): high polyreactivity

## QVQLVESGGGLVQAGGSLRLSCAASGSIFIPYTMGWYRQEPGKARELVAAITKRGGSTYYADSVKGRFTISRDNAKNSVYLQMNSLKPEDTAVYYCNAIKYDPGRWAEYGYWGQGTQVTVSS
  polyreactivity (PSR sort gate): high polyreactivity

## QVQHVESGGGLVQAGGSLRLSCDASGLTISWYAMGWYRQAPGKEREMVAAISKRGGSTYYADSVKGRFTISRDNAKNTVYLQMNSLKPEDTAVYYCNARSPYTGWTLDYWGQGTQVTVSS
  polyreactivity (PSR sort gate): high polyreactivity

## QVHLVESGGGLVQARGSLRLSCAASGITFRYYTMGLYRQAPVKERELVAVISWSGGSTYYADSVKGRFTISRDNAKNTVYFQMNSLKPEDTAVYYCAAVRRISRYDYWGQGTQVTVSS
  polyreactivity (PSR sort gate): high polyreactivity

## QVQLVESAGGLVQAGGSLRLSCAASGSIFPLYAMGWYRQAPGKERELVAAISYSGGRTYYADSVKGRFTISRDNAKNTVYLQMNSLKPEDTAVYYCNTRQRVIDDYWGQGTQVTVSS
  polyreactivity (PSR sort gate): high polyreactivity

## QVQLVESGGGLVQAGGSLRLSCAASGSTFDINAMGWYRQAPGKEWELVAAITWSGDSTYYADSVKGRFTSSRDYAKHTVSLQMNSLKPEDTAVYYCAADYPYSYYEYSSYYYWGQGTQVTVSS
  polyreactivity (PSR sort gate): low polyreactivity

## QVQLVESGGGFVQAGGSLRLSCAASGYIFGIYAMGWYRQAPGKERELVAAISTSGGSTYYADSVKGRFTISRDNAKNTVYLQMNSLKPEDTAVYYCARPTTYGYYYWGQGTQVTVSS
  polyreactivity (PSR sort gate): high polyreactivity
